# From paper PMC10702470, “Activation of Csm6 ribonuclease by cyclic nucleotide binding: in an emergency, twist to open” (Nucleic Acids Research, 2023)
# Numbering of substitutions follows the chain as printed. Names and notes keep the numbering of the source.
# B1: Streptococcus thermophilus Csm6’ (enzyme, UniProt A0A0A7HFE6 1-386, looked up)
# chain: MRVLISAVGDTDPFRNFHDGSLIHIARKYRPEKVILIFSEHTAKKQGNIEKALFSIAPNYEPELIIHDPIISDNEVHIFDVMFQRFSDILQEYYTKEDEFILNLSSATPQIKSALFVINRLNGINVKAVQVSSPEHASNENIGHDNDENIDELIEVNKDNKVNFIDRTIEDNAEKFSQALLKKTARDFIEKFDYKAALDILDQLSDFPNLKSVREEIRDVVNCLSKQDVPKGLRHKKLKEEEQKILSAYLTIELQRERGNVSESFIRIKNLTEFILEDYIEKRYPGLIDEYCEDIQKYYLSLFDYSKLLKATKEFKLKRTIAPIIDMNSSRNKVAHSLSPLDSDAVKQLGIAMKTLKTLVREQYHFSQSDFNFYHDLNKILLTKLN
# notes: Csm6’ ribonuclease of the type III-A CRISPR system of Streptococcus thermophilus; 386 residues in the monomer (CARF 1-173, 6H 174-239, HEPN 240-386); Cloned in pEV5HisTEV between NcoI and BamHI; Crystallised with cA6 (8PE3) and without (8PCW); also called StCsm6’; WT StCsm6’; source: E. coli C43 (DE3), purified (HisTrap, TEV cleavage, second IMAC, SEC)
# B2: StCsm6’ variant C223A:C292A:N209C:D88C, MTSL spin-labelled (enzyme, Streptococcus thermophilus, UniProt A0A0A7HFE6 1-386, looked up)
# chain: B1 chain with D88C, N209C, C223A, C292A
# modifications: MTSL spin-labelled cysteine side chain R1 at 88 and 209
# notes: Csm6’ ribonuclease of Streptococcus thermophilus, 386 residues in the monomer, with four substitutions; parent as m1; Variants were expressed and purified as described for the WT protein; also called D88C/N209C; D88R1/N209R1; source: E. coli C43 (DE3), purified as the WT protein, then spin-labelled with MTSL
# B3: StCsm6’ variant C223A:C292A:N209C:R85C, MTSL spin-labelled (enzyme, Streptococcus thermophilus, UniProt A0A0A7HFE6 1-386, looked up)
# chain: B1 chain with R85C, N209C, C223A, C292A
# modifications: MTSL spin-labelled cysteine side chain R1 at 85 and 209
# notes: Csm6’ ribonuclease of Streptococcus thermophilus, 386 residues in the monomer, with four substitutions; parent as m1; Variants were expressed and purified as described for the WT protein; also called R85C/N209C; R85R1/N209R1; source: E. coli C43 (DE3), purified as the WT protein, then spin-labelled with MTSL
# Tests used:
# StCsm6’ (Csm6’) [1] = molecular target: T1, StCsm6’ (Csm6’) (Streptococcus thermophilus, UniProt A0A0A7HFE6); assay: fluorogenic RNase activation assay (RNaseAlert FAM); type: biochemical; conditions: activator, CARF domain; 1 µM dimer, 125 nM reporter RNA, MES pH 6.0, 30 mM NaCl, 20% glycerol, 45 °C, 30 min
# T1 construct: full length, 386 residues, CARF 1-173, 6H 174-239, HEPN 240-386; E. coli C43(DE3), pEV5HisTEV, 8-His tag cut by TEV; symmetrical homodimer
# T1 sequence (A0A0A7HFE6 1-386): B1 chain
# StCsm6’ (Csm6’) [2] = molecular target: T1, StCsm6’ (Csm6’); assay: X-ray crystallography, […] Å; type: binding; conditions: CARF domain site at dimer; occupancy 0.50, mixed with cleaved product
# [3] = molecular target: the molecule itself; assay: crystal structure; StCsm6’ co-crystallised with cA6 (1:1.5 molar ratio), 1.96 Å; homodimer
# [4] = molecular target: the molecule itself; assay: pulse dipolar EPR spectroscopy (PELDOR/DEER); spin-labelled protein at 50 μM in deuterated buffer with 50% glycerol, frozen solution, 50 K, Q-band, with and without 25 μM cA6; distances between spin labels in the two monomers
molecule,measurement,setting,value
"Nc1ncnc2c1ncn2[C@@H]1O[C@@H]2COP(=O)(O)O[C@H]3[C@@H](O)[C@H](n4cnc5c(N)ncnc54)O[C@@H]3COP(=O)(O)O[C@H]3[C@@H](O)[C@H](n4cnc5c(N)ncnc54)O[C@@H]3COP(=O)(O)O[C@H]3[C@@H](O)[C@H](n4cnc5c(N)ncnc54)O[C@@H]3COP(=O)(O)O[C@H]3[C@@H](O)[C@H](n4cnc5c(N)ncnc54)O[C@@H]3COP(=O)(O)O[C@H]3[C@@H](O)[C@H](n4cnc5c(N)ncnc54)O[C@@H]3COP(=O)(O)O[C@H]2[C@H]1O [cA6, cyclic hexa-adenylate]",concentration for full activation,StCsm6’ (Csm6’) [1],~ 100 nM
same,"X-ray crystallography, 1.96 Å",StCsm6’ (Csm6’) [2],electron density consistent with a molecule of cA6 bound to the StCsm6’ dimer
B1,stoichiometry N,[3],2
B2,binding result,[4],binds
B3,binding result,[4],binds
